Experimental findings from publication PMC3778244 (Genes & Development, 2013) are described below.

Test [1] deals with T1, Ccq1 N-terminal domain (Ccq1-NTD; residues 2-439) (S. pombe, UniProt Q10432 2-439).
T1 sequence: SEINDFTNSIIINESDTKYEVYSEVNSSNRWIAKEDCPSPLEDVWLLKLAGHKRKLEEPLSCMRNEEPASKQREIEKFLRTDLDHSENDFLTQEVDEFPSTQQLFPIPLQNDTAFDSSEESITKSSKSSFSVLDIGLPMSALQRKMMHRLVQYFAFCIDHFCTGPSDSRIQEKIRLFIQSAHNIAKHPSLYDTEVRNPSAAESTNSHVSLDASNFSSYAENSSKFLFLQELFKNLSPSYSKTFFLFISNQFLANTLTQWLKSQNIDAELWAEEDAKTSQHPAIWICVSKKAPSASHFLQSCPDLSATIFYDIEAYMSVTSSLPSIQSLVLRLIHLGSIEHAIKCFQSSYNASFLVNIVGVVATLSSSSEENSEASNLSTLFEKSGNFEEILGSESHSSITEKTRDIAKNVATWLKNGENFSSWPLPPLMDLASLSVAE
The test is described as follows: pull-down.

The target in test [2] is T2, Poz1 (recombinant) (S. pombe, UniProt O13852 1-249).
T2 sequence: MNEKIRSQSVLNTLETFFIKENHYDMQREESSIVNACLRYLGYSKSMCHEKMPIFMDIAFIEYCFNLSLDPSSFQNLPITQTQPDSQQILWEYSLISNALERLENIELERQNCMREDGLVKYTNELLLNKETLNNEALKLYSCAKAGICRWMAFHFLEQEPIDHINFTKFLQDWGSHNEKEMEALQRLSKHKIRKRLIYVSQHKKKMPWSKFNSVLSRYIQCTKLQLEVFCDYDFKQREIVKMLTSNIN
The test is described as follows: pull-down.

B1: GST-Tpz1-CTD (Tpz1 C-terminal domain, residues 406-508) (domain or fragment)
chain: SSVISCTPPAINFTSDICNEQIELEYKRKPIPDYDFMKGLETTLQELYVEHQSKKRRLELFQLTNNHQKNSEACEMCRLGLPHGSFFELLRDWKKIEEFRNKS
As to B1, the binding result in test [1] and in test [2] was “binds” throughout.

B2: GST-Tpz1-CTD L449A (domain or fragment)
chain: SSVISCTPPAINFTSDICNEQIELEYKRKPIPDYDFMKGLETTAQELYVEHQSKKRRLELFQLTNNHQKNSEACEMCRLGLPHGSFFELLRDWKKIEEFRNKS
Take B2: in test [2], the binding result was “binds”.

B3: GST-Tpz1-CTD I501R (domain or fragment)
chain: SSVISCTPPAINFTSDICNEQIELEYKRKPIPDYDFMKGLETTLQELYVEHQSKKRRLELFQLTNNHQKNSEACEMCRLGLPHGSFFELLRDWKKREEFRNKS
As for B3, the binding result in test [1] is given as “binds”.
